Results published in publication PMC4639866.

Molecular target: GST::BubR1 [1–337] (Drosophila)
Experiment: pull-down

B1: GFP::Fzy-DYY* (natural protein)
chain: MSQFNFVSDLQNALIMDGETRGPAPRWKKKLEASLNGSVNTTRSVLSVSYNTSFSGVQAPTKTPGKSSEGKTKKSNTTPSKTPGGGDRFIPNRAATNFELAHFLVNKDSGDKSDEENDKATSSNSNESNVQASAHKGDRQKLISEVAQVGDSKGGRILCYQNKAPAAPETHNNPLKVVYSIKTPISTKSGSRYIPTTSERILDAPDFINAAALNLMDWSADNIVAVALGSCVYLWNAQTGNIEQLTEFEEGDYAGSLSWIQEGQILAIGNSTGAVELWDCSKVKRLRVMDGHSARVGSLAWNSFLVSSGSRDGTIVHHDVRAREHKLSTLSGHTQEVCGLKWSTDFKYLASGGNDNLVNVWSAASGGVGTATDPLHKFNDHQAAVRALAWCPWQPSTLASGGGTADRCIKFWNVNNGTLMKSVDSKSQVCSLLFSRHYKELISAHGFANNQLTIWKYPTMVKQADLTGHTSRVLQMAMSPDGSTVISAGADETLRLWNCFAPDPLASKKAVSTSKGKQSVFRQSIR
  decrease of in vitro binding efficiency against wild-type Fzy: 50%
